Data: EP1832653A1 (INSTITUTE OF VIROLOGY, dated 2007)

B1: phage-displayed heptapeptide of SEQ ID NO: 137 (without the added alanines), Ph.D.-7 library (peptide)
peptide: KKMKRRK
notes: Residues 2-8 follow from 'after adding alanine on both sides'
B2: oligopeptide … (aa 75-98) [SEQ ID NO: 106] (peptide)
peptide: EDPPGEEDLPGEEDLPGEEDLPEV
notes: Synthetic; cysteine added onto the C-end; C-terminal acid
B3: phage-displayed heptapeptide of SEQ ID NO: 138 (without the added alanines), Ph.D.-7 library (peptide)
peptide: ITFNAQY
B4: phage-displayed heptapeptide of SEQ ID NO: 139 (without the added alanines), Ph.D.-7 library (peptide)
peptide: SASAPVS

Assays:
[1] = target: B2; experiment: phage display panning, 5 cycles, on immobilized peptide SEQ ID NO: 106
[2] = target: T1, monoclonal antibody M75 (MAb M75), secreted from the hybridoma VU-M75, ATCC HB 11128; experiment: competition ELISA: peptide in solution against immobilized GST-MN for M75
T1 construct: also called MAb 75

Row | Binder | binding result [1] | IC50 [2] [ng/mL]
1 | B1 | binds | –
2 | B2 | – | 1
3 | B3 | binds | –
4 | B4 | binds | –
